Data: the supplement of paper PMC10567573

B1: ZMYND11 (parent)
chain: YCSIKCQQEHWHAEHKRTCRRKR
B2: CAMK2D (parent)
chain: LLKHPNIVRLHDSISEEGFHYLVF

Variants of: B1
Assay: protein stability index of a GFP-peptide fusion (GPS, HEK-293T) (PSI 1-6); higher = more stable
Details: c terminus: native
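Note: lentivirally expressed fusions sorted by FACS into six bins by GFP to DsRed ratio, PSI derived from sequencing read proportions per bin multiplied by bin number.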

Variant | protein stability index
I4H | 2.62
I4D | 2.6
I4M | 1.83
I4A | 2.76
I4W | 1.89
I4K | 2.37
I4L | 2.14
I4E | 3.25
I4V | 2.51
I4C | 2.67
I4P | 2.38
I4S | 2.51
I4F | 2.66
I4N | 2.9
I4R | 2.79
I4G | 1.84
I4Y | 3.92
I4Q | 1.94
I4T | 2.08
C2F | 2.89
C2H | 1.54
C2P | 2.2
C2K | 2.68
C2N | 3.64
C2S | 3.1

Variant | protein stability index
C2A | 2.1
C2D | 3.76
C2R | 3.01
C2Q | 1.79
C2T | 3.44
C2L | 2.32
C2E | 2.87
C2Y | 2.85
C2V | 1.45
C2M | 3.01
C2G | 2.8
C2I | 1.92
Y1F | 1.67
Y1P | 3.46
Y1A | 3.95
Y1H | 3.9
Y1I | 3.23
Y1S | 4.09
Y1L | 2.86
Y1E | 2.91
Y1G | 3.74
Y1V | 3.71
Y1M | 3.94
Y1R | 3.62
Y1W | 2.29

Variant | protein stability index
Y1T | 3.67
Y1D | 2.58
Y1K | 3.12
Y1Q | 3.91
Y1C | 3.8
Y1N | 3.79
K5S | 2.22
K5I | 1.56
K5Q | 3.2
K5D | 2.63
K5G | 2.09
K5E | 2.51
K5F | 1.67
K5A | 2.09
K5R | 3.15
K5L | 2.09
K5M | 2.27
K5P | 1.75
K5T | 2.6
K5H | 2.07
K5V | 1.66
K5Y | 2.91
K5C | 3.25
K5N | 2.53
C6L | 1.75

Variant | protein stability index
C6W | 1.77
C6A | 2.39
C6M | 1.9
C6K | 2.69
C6H | 2.9
C6T | 1.87
C6S | 2.38
C6Y | 2.07
C6I | 1.78
C6D | 2.69
C6G | 2.74
C6P | 2.57
C6N | 1.76
C6R | 1.56
C6E | 2.87
C6V | 2.59
C6F | 1.96
C6Q | 1.59
Q7K | 3.05
Q7E | 2.42
Q7D | 2.56
Q7F | 1.67
Q7G | 2.46
Q7I | 2.44
Q7A | 2.36

Variant | protein stability index
Q7H | 2.69
Q7L | 2.21
Q7C | 1.95
S3Y | 1.94
S3H | 2.24
S3K | 2.61
S3L | 1.7
S3R | 2.19
S3V | 2.36
S3P | 2.17
S3G | 1.86
S3W | 1.51
S3T | 2.48
S3Q | 2.59
S3I | 1.84
S3A | 1.96
S3C | 3.31
S3D | 3.07
S3N | 2.85
S3F | 1.11
S3M | 2.19
S3E | 3.27

Variants of: B2
Assay: as above
Details: c terminus: a fixed tail appended

Variant | protein stability index
D12V | 2.63
D12Y | 2.35
Y21A | 1.38
Y21N | 2.39
Y21I | 1.79
Y21W | 2.79
Y21S | 2.33
Y21G | 2.37
Y21Q | 2.39
Y21C | 2
Y21R | 2.63
Y21E | 2.32
Y21K | 1.8
Y21L | 1.97
Y21M | 2.58
Y21P | 1.96
Y21D | 2.51
Y21H | 2.03
Y21F | 2.92
Y21T | 2.25
E17Y | 2.04
E17G | 2.8
E17T | 2.31
E17C | 2.99

Variant | protein stability index
E17P | 2.75
E17N | 3.79
E17W | 2.94
E17V | 2.47
E17S | 2.93
E17F | 2.27
E17D | 2.66
E17M | 4.04
E17R | 2.11
E17Q | 1.84
E17A | 2.91
E17K | 2.71
E17H | 1.87
E17L | 3.59
F24E | 1.73
F24W | 1.22
F24G | 2.47
F24A | 1.62
F24D | 2.21
F24N | 1.51
F24K | 1.71
F24R | 2.06
F24P | 1.98
F24T | 1.15

Variant | protein stability index
F24Q | 1.85
F24V | 2.12
F24L | 2.94
F24Y | 2.28
F24S | 2.13
F24C | 1.84
F24H | 2.39
F19S | 1.45
F19P | 1.53
F19I | 2.73
F19T | 3.57
F19R | 2.02
F19Q | 2.66
F19Y | 2.08
F19W | 2.42
F19H | 1.73
F19N | 2.03
F19E | 2.38
F19G | 1.23
F19V | 1.52
F19A | 1.81
F19C | 1.37
F19D | 1.73
F19M | 2.08

Variant | protein stability index
F19K | 3.11
L22T | 2.39
L22W | 1.88
L22Y | 2.02
L22N | 1.75
L22H | 2.19
L22C | 2.18
L22G | 1.57
L22D | 2.08
L22S | 1.81
L22A | 3.02
L22R | 1.28
L22Q | 1.3
L22V | 1.03
L22K | 2.54
L22P | 1.81
L22I | 2.96
L22E | 2.22
L22F | 2.36
L22M | 2.59
G18C | 1.98
G18I | 2
G18L | 3.43
G18K | 3.36

Variant | protein stability index
G18S | 2.3
G18Q | 1.94
G18Y | 1.8
G18D | 2.39
G18F | 2.73
G18R | 3.12
G18H | 1.78
G18A | 3.26
G18E | 1.63
G18M | 2.1
G18P | 2.03
G18N | 1.5
G18W | 1.61
G18T | 1.87
V23W | 2.78
V23P | 1.84
V23Q | 1.87
V23M | 2.91
V23T | 3.35
V23S | 1.85
V23Y | 1.22
V23F | 1.91
V23I | 1.99
V23G | 2.12

Variant | protein stability index
V23E | 1.38
V23R | 3.22
V23H | 2.57
V23N | 3.14
V23K | 1.68
V23L | 2
V23A | 2.81
V23D | 2.19
S13F | 1.5
S13L | 2.29
S13I | 2.96
S13Y | 2.94
S13V | 3.9
S13N | 2.13
S13W | 1.84
S13K | 2.81
S13R | 1.83
S13Q | 1.7
S13D | 2.46
S13G | 2.59
S13C | 2.82
S13A | 3.1
S13P | 2.75
S13H | 2.91

Variant | protein stability index
S13E | 1.47
I14T | 1.91
I14M | 1.18
I14W | 1.4
I14H | 1.11
I14Q | 1.78
I14G | 1.64
I14C | 2.44
I14D | 1.64
I14V | 2.11
I14A | 1.66
I14S | 2.15
I14E | 2.8
I14K | 2.4
I14P | 2.74
I14Y | 1.89
I14R | 1.75
I14N | 2.05
E16V | 1.39
E16Q | 3.03
E16A | 2.88
E16K | 1.21
E16T | 1.39
E16F | 2.32

Variant | protein stability index
E16W | 1.92
E16D | 1.67
E16C | 2.3
E16M | 2.71
E16P | 1.62
E16N | 2.87
E16S | 1.19
E16L | 2.47
E16R | 1.67
H20I | 3.5
H20Y | 1.41
H20L | 2.31
H20P | 2.08
H20M | 2.05
H20S | 2.75
H20V | 3.17
H20K | 2.66
H20Q | 2.65
H20F | 2.39
H20D | 1.96
H20A | 1.73
H20E | 3.1
H20C | 2.07
H20W | 1.42

Variant | protein stability index
H20R | 2.08
H20T | 3.25
S15N | 2.31
S15M | 3.4
S15P | 2.27
S15E | 2.57
S15F | 2.56
S15Y | 2.34
S15I | 3.54
S15T | 1.3
S15R | 2.66
S15C | 2.51
S15A | 2.19
S15K | 2.45
S15G | 1.8
S15V | 2.2
S15D | 1.44
S15L | 2.19
S15H | 2.1
S15W | 3.22
